The source of these data is patent US20120164688A1 (Regeneron, published 2012).

The target in assay [1] is T1, human nerve growth factor (NGF) (human, UniProt P01138 122-241).
T1 construct: range 122-241; biotin-labeled in OCTET and ELISA assays; also called human NGF; biotin-NGF
Put plainly: BIACORE SPR; complex dissociation half-life. Here is the method: (§1) Antibodies were captured on either a goat, anti-human or anti-mouse IgG polyclonal antibody surface created by direct amine coupling of the capture antibody to a BIACORE™ chip. […] Kinetic analysis was performed to obtain the equilibrium dissociation constant (KD) and dissociation rate constant, and the latter was used to calculate the antigen/antibody complex dissociation t_{1/2} (Table 1).

The target of another assay is mouse NGF (mNGF) (mouse, UniProt P01139 122-241, limits assumed). Put plainly: BIACORE SPR. Here is the method: as §1
Chain of mouse NGF (mNGF) (P01139 122-241 limits assumed): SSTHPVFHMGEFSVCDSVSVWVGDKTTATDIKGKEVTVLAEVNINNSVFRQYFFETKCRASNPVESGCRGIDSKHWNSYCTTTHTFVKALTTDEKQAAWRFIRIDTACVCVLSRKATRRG
(§2) The binding affinities of the antibodies to both mNGF and rNGF were determined as described above.
On the technique in general: Surface plasmon resonance follows binding to a sensor surface in real time, without labels.

Assay [2] addresses T1, human nerve growth factor (NGF). The assay is described as follows: BIACORE SPR. How it is done:
as §1, §2

For a further assay, the target named is rat NGF (rNGF) (rat, UniProt P25427 122-241, limits assumed). The assay is described as follows: BIACORE SPR. Here is the method: as §1, §2
Chain of rat NGF (rNGF) (P25427 122-241 limits assumed): as the sequence (P01139 122-241 limits assumed) above, with A40G, R50K, S61P, E94D, T117A counted along it
For assay [3], the target named is T1, human nerve growth factor (NGF). Put plainly: cell-based or functional assay.
T1 sequence (P01138 122-241 limits assumed): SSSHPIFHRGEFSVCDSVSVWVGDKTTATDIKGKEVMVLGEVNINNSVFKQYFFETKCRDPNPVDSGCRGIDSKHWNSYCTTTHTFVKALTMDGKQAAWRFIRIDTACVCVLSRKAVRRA
Assay [4] has as its target T2, human neurotrophin-3 (NT-3) (human, UniProt P20783 139-257).
T2 construct: also called human NT-3
T2 sequence (looked up): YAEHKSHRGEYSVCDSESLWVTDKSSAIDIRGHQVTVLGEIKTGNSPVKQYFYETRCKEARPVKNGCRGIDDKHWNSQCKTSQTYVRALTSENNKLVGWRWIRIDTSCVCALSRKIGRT
The assay is described as follows: BIACORE SPR; mAb captured, NT-3 injected. Here is the method:
(§3) Briefly, goat anti-human IgG polyclonal antibody was chemically linked to a CM5 chip. […] Both association and dissociation phases were monitored and data were analyzed.

Assay [5] concerns the target T1, human nerve growth factor (NGF). Put plainly: BIACORE blocking; % free NGF bound to TrkA-hFc chip. The source says: (§4) To identify blocking antibodies, a receptor blocking assay was designed using a BIACORE™ 3000 instrument. Recombinant human TrkA-hFc and human p75-hFc proteins were amine-coupled to a CM5 chip to a density of about 5000-6000 RU.
The target is the same in assay [6]. Put plainly: BIACORE SPR; mAb captured, 20 nM NGF. How it is done:
as §3

The target is the same in assay [7]. The assay is described as follows: BIACORE blocking; % free NGF bound to p75-hFc chip.
Description: as §4

For assay [8] the target is unchanged. The assay is described as follows: BIACORE SPR; mAb captured, human NGF injected. How it is done: as §1

T1 sequence (P01138 122-241 limits assumed): as the sequence (P01138 122-241 limits assumed) above

B1: 301272-3H10-A10 (antibody)
heavy: not shown
VL: DIRMTQSPSSLSASAGDRVTITCRASQAIRNDLGWYQQKPGKAPKRLIYAAFNLQSGVPSRFSGSGSGTEFTLTISSLQPEDLASYYCQQYNRYPWTFGQGTKLEIK
notes: also called REGN261
Take B1: in [1], the t1/2 is 25.2 h. Moreover, the dissociation constant Kd is 0.2 pM with mouse NGF (mNGF); 0.1 pM in [2]; 0.6 pM with rat NGF (rNGF); 0.1 pM in assay [6]; 0.1 pM in assay [8]. In addition, the “MG87 IC50” value in assay [3] is < 186 pM. Moreover, the “PC12 IC50” value in assay [3] amounted to 9 pM. The binding result in assay [4] was “no binding (tested: 20 nM)”. For the same molecule, the “% Binding TrkA-hFc” value in assay [5] turned out to be 1%. For the same molecule, in assay [7], the “% Binding p75-hFc” value stood at 2%.

Usually Kd stands for the concentration at which binding is half-saturated. High values mean weaker binding, low ones tighter binding.
